Like-named read-outs stand apart in the source and are kept apart here.
What was measured:
[1] = biological target: fHbp ID 1 on live bacteria of N. meningitidis group B strain H44/76 (Neisseria meningitidis) (UniProt E6MV22); assay: cell-based or functional assay
[2] = biological target: fHbp ID 22, wild-type (variant group 2, modular group III) (Neisseria meningitidis); assay: ELISA
[3] = biological target: fHbp ID 77, wild-type (strain 8047, variant group 2, modular group VI) (Neisseria meningitidis); assay: ELISA
[4] = biological target: T1, human complement factor H (human, UniProt P08603 19-1231); assay: ELISA, vs respective wildtype fHbp
T1 construct: also called human fH; fH

[5] = biological target: T1, human complement factor H; assay: ELISA, fHbp on plate
[6] = biological target: T1, human complement factor H; assay: ELISA
[7] = biological target: human complement factor H (human) (UniProt P08603); assay: ELISA, vs respective wildtype fHbp
[8] = biological target: T1, human complement factor H; assay: ELISA, vs respective wildtype fHbp; remark: listed apart in the source
[9] = biological target: T2, mouse factor H (native fH of wild-type mice) (mouse, UniProt P06909 19-1234); assay: ELISA, fHbp on plate, mouse serum
T2 construct: also called mouse fH
T2 sequence (P06909 19-1234): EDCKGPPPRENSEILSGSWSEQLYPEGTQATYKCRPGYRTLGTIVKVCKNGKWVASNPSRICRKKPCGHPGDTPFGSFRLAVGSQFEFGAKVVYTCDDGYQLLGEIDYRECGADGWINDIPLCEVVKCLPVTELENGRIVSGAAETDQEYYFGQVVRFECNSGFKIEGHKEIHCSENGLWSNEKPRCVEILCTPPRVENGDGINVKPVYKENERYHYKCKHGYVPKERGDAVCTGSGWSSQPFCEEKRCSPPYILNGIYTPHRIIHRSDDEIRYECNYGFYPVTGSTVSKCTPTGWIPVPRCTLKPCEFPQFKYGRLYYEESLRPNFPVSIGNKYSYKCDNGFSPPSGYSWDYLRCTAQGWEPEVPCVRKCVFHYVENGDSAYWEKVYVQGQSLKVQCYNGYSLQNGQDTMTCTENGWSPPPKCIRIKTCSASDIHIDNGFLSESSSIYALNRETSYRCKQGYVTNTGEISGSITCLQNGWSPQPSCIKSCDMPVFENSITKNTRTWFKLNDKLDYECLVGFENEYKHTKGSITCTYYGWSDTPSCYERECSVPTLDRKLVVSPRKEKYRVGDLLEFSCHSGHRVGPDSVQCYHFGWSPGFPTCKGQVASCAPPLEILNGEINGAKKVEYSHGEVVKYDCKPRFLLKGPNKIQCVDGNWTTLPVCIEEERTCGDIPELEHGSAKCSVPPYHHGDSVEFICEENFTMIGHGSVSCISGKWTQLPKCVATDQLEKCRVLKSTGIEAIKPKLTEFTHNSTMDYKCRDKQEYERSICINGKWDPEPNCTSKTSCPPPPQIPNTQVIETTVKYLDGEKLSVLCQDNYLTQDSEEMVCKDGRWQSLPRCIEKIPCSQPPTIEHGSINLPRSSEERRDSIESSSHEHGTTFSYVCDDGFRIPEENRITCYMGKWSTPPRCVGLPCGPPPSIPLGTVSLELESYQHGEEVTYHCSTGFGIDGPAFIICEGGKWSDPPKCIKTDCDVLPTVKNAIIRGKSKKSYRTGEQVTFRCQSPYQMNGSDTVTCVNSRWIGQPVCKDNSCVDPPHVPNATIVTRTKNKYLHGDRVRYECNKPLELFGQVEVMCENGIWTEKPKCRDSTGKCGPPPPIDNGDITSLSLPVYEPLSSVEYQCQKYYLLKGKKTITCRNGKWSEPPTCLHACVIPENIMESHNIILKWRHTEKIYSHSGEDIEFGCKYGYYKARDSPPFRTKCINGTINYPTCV

Chain of human complement factor H (human) (P08603 19-1231 limits assumed): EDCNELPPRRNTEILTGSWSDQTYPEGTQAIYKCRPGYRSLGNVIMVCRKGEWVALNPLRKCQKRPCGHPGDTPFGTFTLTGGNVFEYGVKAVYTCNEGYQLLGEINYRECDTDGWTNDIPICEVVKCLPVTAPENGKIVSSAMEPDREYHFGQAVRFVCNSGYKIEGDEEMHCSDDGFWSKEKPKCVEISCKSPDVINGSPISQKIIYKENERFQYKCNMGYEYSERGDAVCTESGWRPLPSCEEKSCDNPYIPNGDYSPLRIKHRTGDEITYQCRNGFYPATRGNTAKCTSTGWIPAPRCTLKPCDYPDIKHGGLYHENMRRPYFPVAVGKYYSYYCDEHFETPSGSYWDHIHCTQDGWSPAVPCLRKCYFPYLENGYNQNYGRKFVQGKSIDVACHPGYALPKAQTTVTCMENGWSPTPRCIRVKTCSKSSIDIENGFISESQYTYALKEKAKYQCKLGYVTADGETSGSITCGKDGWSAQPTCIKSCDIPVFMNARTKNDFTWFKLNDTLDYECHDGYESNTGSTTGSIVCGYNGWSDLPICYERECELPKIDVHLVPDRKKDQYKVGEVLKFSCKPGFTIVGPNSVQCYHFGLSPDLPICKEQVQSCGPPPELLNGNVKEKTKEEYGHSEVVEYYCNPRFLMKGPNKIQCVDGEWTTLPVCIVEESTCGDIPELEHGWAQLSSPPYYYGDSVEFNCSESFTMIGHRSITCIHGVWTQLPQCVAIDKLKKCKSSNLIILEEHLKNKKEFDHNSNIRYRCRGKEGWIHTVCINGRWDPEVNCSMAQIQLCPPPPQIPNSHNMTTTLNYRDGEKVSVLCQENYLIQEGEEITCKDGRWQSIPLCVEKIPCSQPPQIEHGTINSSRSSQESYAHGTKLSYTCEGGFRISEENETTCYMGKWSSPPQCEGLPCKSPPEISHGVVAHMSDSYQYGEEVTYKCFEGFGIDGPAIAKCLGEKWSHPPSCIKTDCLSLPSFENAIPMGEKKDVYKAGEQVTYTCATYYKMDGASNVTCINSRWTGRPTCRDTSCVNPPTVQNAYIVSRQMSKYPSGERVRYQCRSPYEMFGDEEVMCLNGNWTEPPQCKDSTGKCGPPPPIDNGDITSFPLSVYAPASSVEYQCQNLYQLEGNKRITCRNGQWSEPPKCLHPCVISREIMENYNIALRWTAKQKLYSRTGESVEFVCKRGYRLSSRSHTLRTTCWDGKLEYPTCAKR
T1 sequence (P08603 19-1231 limits assumed): as above

human IgG1 mouse chimeric anti-fHbp mAb502 (from UniProt P01857 1-330; P01834 1-107) (antibody)
Bactericidal Activity (BC50%), fH-depleted complement, mean [1]: 1.25 µg/mL
Bactericidal Activity (BC50%), fH-repleted complement, mean [1]: > 100 µg/mL

human IgG1 mouse chimeric anti-fHbp mAb JAR 5 (from UniProt P01857 1-330; P01834 1-107) (antibody)
Bactericidal Activity (BC50%), fH-depleted complement, mean [1]: 1.25 µg/mL
Bactericidal Activity (BC50%), fH-repleted complement, mean [1]: 23.5 µg/mL

human IgG1 mouse chimeric anti-fHbp mAb JAR 3 (from UniProt P01857 1-330; P01834 1-107) (antibody)
Bactericidal Activity (BC50%), fH-repleted complement, mean [1]: 15.2 µg/mL

anti-fHbp monoclonal antibody JAR 4 (murine)
percent less binding than to variant 1 fHbp (ID 1) [2]: 30%
percent less binding than to variant 1 fHbp (ID 1) [3]: 30%

B1: fHbp ID 77, wild-type (strain 8047, variant group 2, modular group VI) (other)
chain: CSSGGGGVAADIGARLADALTAPLDHKDKSLQSLTLDQSVRKNEKLKLAAQGAEKTYGNGDSLNTGKLKNDKVSRFDFIRQIEVDGQLITLESGEFQIYKQDHSAVVALQIEKINNPDKIDSLINQRSFLVSGLGGEHTAFNQLPDGKAEYHGKAFSSDDAGGKLTYTIDFAAKQGHGKIEHLKTPEQNVELAAAELKADEKSHAVILGDTRYGSEEKGTYHLALFGDRAQEIAGSATVKIGEKVHEIGIAGKQ
notes: Recombinant; also called ID 77 (VI); wildtype fHbp ID 77
Fold-Decrease in fH binding [4]: 0 fold

B2: fHbp ID 77 R41S/D121A double mutant (other)
chain: CSSGGGGVAADIGARLADALTAPLDHKDKSLQSLTLDQSVSKNEKLKLAAQGAEKTYGNGDSLNTGKLKNDKVSRFDFIRQIEVDGQLITLESGEFQIYKQDHSAVVALQIEKINNPDKIASLINQRSFLVSGLGGEHTAFNQLPDGKAEYHGKAFSSDDAGGKLTYTIDFAAKQGHGKIEHLKTPEQNVELAAAELKADEKSHAVILGDTRYGSEEKGTYHLALFGDRAQEIAGSATVKIGEKVHEIGIAGKQ
Fold-Decrease in fH binding [4]: > 10 fold
fold less binding to fH than wildtype fHbp ID 77 [5]: ~10 fold

B3: fHbp ID 77 R41S/K119A double mutant (other)
chain: CSSGGGGVAADIGARLADALTAPLDHKDKSLQSLTLDQSVSKNEKLKLAAQGAEKTYGNGDSLNTGKLKNDKVSRFDFIRQIEVDGQLITLESGEFQIYKQDHSAVVALQIEKINNPDAIDSLINQRSFLVSGLGGEHTAFNQLPDGKAEYHGKAFSSDDAGGKLTYTIDFAAKQGHGKIEHLKTPEQNVELAAAELKADEKSHAVILGDTRYGSEEKGTYHLALFGDRAQEIAGSATVKIGEKVHEIGIAGKQ
Fold-Decrease in fH binding [4]: > 5 fold
fold decrease in fH binding [5]: ~5 fold

B4: fHbp ID 77 R41S/K113A/D121A triple mutant (other)
chain: CSSGGGGVAADIGARLADALTAPLDHKDKSLQSLTLDQSVSKNEKLKLAAQGAEKTYGNGDSLNTGKLKNDKVSRFDFIRQIEVDGQLITLESGEFQIYKQDHSAVVALQIEAINNPDKIASLINQRSFLVSGLGGEHTAFNQLPDGKAEYHGKAFSSDDAGGKLTYTIDFAAKQGHGKIEHLKTPEQNVELAAAELKADEKSHAVILGDTRYGSEEKGTYHLALFGDRAQEIAGSATVKIGEKVHEIGIAGKQ
Fold-Decrease in fH binding [4]: > 50 fold
binding result [5]: no binding

B5: fHbp ID 77 R41S/K113A double mutant (other)
chain: CSSGGGGVAADIGARLADALTAPLDHKDKSLQSLTLDQSVSKNEKLKLAAQGAEKTYGNGDSLNTGKLKNDKVSRFDFIRQIEVDGQLITLESGEFQIYKQDHSAVVALQIEAINNPDKIDSLINQRSFLVSGLGGEHTAFNQLPDGKAEYHGKAFSSDDAGGKLTYTIDFAAKQGHGKIEHLKTPEQNVELAAAELKADEKSHAVILGDTRYGSEEKGTYHLALFGDRAQEIAGSATVKIGEKVHEIGIAGKQ
Fold-Decrease in fH binding [4]: > 10 fold
fold less binding to fH than wildtype fHbp ID 77 [5]: ~10 fold

B6: fHbp ID 28 K199A mutant (other)
chain: CSSGGGGSGGGGVAADIGTGLADALTAPLDHKDKGLKSLTLEDSIPQNGTLTLSAQGAEKTFKAGDKDNSLNTGKLKNDKISRFDFVQKIEVDGQTITLASGEFQIYKQNHSAVVALQIEKINNPDKTDSLINQRSFLVSGLGGEHTAFNQLPGGKAEYHGKAFSSDDPNGRLHYSIDFTKKQGYGRIEHLKTLEQNVELAAAELAADEKSHAVILGDTRYGSEEKGTYHLALFGDRAQEIAGSATVKIGEKVHEIGIAGKQ
binding result [6]: binds

B7: fHbp ID 22 R80A mutant (protein)
chain: CSSGGGGVAADIGAGLADALTAPLDHKDKSLQSLTLDQSVRKNEKLKLAAQGAEKTYGNGDSLNTGKLKNDKVSRFDFIAQIEVDGQLITLESGEFQIYKQDHSAVVALQIEKINNPDKIDSLINQRSFLVSGLGGEHTAFNQLPSGKAEYHGKAFSSDDPNGRLHYSIDFTKKQGYGRIEHLKTPEQNVELASAELKADEKSHAVILGDTRYGGEEKGTYHLALFGDRAQEIAGSATVKIREKVHEIGIAGKQ
Fold-Decrease in fH binding [7]: > 50 fold

B8: fHbp ID 22 T220A/H222A double mutant (protein)
chain: CSSGGGGVAADIGAGLADALTAPLDHKDKSLQSLTLDQSVRKNEKLKLAAQGAEKTYGNGDSLNTGKLKNDKVSRFDFIRQIEVDGQLITLESGEFQIYKQDHSAVVALQIEKINNPDKIDSLINQRSFLVSGLGGEHTAFNQLPSGKAEYHGKAFSSDDPNGRLHYSIDFTKKQGYGRIEHLKTPEQNVELASAELKADEKSHAVILGDTRYGGEEKGAYALALFGDRAQEIAGSATVKIREKVHEIGIAGKQ
Fold-Decrease in fH binding [7]: > 50 fold

B9: fHbp ID 22 G236I mutant (protein)
chain: CSSGGGGVAADIGAGLADALTAPLDHKDKSLQSLTLDQSVRKNEKLKLAAQGAEKTYGNGDSLNTGKLKNDKVSRFDFIRQIEVDGQLITLESGEFQIYKQDHSAVVALQIEKINNPDKIDSLINQRSFLVSGLGGEHTAFNQLPSGKAEYHGKAFSSDDPNGRLHYSIDFTKKQGYGRIEHLKTPEQNVELASAELKADEKSHAVILGDTRYGGEEKGTYHLALFGDRAQEIAISATVKIREKVHEIGIAGKQ
Fold-Decrease in fH binding [7]: > 50 fold

B10: fHbp ID 22 D211A mutant (protein)
chain: CSSGGGGVAADIGAGLADALTAPLDHKDKSLQSLTLDQSVRKNEKLKLAAQGAEKTYGNGDSLNTGKLKNDKVSRFDFIRQIEVDGQLITLESGEFQIYKQDHSAVVALQIEKINNPDKIDSLINQRSFLVSGLGGEHTAFNQLPSGKAEYHGKAFSSDDPNGRLHYSIDFTKKQGYGRIEHLKTPEQNVELASAELKADEKSHAVILGATRYGGEEKGTYHLALFGDRAQEIAGSATVKIREKVHEIGIAGKQ
Fold-Decrease in fH binding [7]: > 50 fold

B11: fHbp ID 22 E218A mutant (protein)
chain: CSSGGGGVAADIGAGLADALTAPLDHKDKSLQSLTLDQSVRKNEKLKLAAQGAEKTYGNGDSLNTGKLKNDKVSRFDFIRQIEVDGQLITLESGEFQIYKQDHSAVVALQIEKINNPDKIDSLINQRSFLVSGLGGEHTAFNQLPSGKAEYHGKAFSSDDPNGRLHYSIDFTKKQGYGRIEHLKTPEQNVELASAELKADEKSHAVILGDTRYGGEAKGTYHLALFGDRAQEIAGSATVKIREKVHEIGIAGKQ
Fold-Decrease in fH binding [7]: > 50 fold

B12: fHbp ID 22 E248A mutant (protein)
chain: CSSGGGGVAADIGAGLADALTAPLDHKDKSLQSLTLDQSVRKNEKLKLAAQGAEKTYGNGDSLNTGKLKNDKVSRFDFIRQIEVDGQLITLESGEFQIYKQDHSAVVALQIEKINNPDKIDSLINQRSFLVSGLGGEHTAFNQLPSGKAEYHGKAFSSDDPNGRLHYSIDFTKKQGYGRIEHLKTPEQNVELASAELKADEKSHAVILGDTRYGGEEKGTYHLALFGDRAQEIAGSATVKIREKVHAIGIAGKQ
Fold-Decrease in fH binding [7]: > 50 fold

B13: fHbp ID 22, wild-type (variant group 2, modular group III) (other)
chain: CSSGGGGVAADIGAGLADALTAPLDHKDKSLQSLTLDQSVRKNEKLKLAAQGAEKTYGNGDSLNTGKLKNDKVSRFDFIRQIEVDGQLITLESGEFQIYKQDHSAVVALQIEKINNPDKIDSLINQRSFLVSGLGGEHTAFNQLPSGKAEYHGKAFSSDDPNGRLHYSIDFTKKQGYGRIEHLKTPEQNVELASAELKADEKSHAVILGDTRYGGEEKGTYHLALFGDRAQEIAGSATVKIREKVHEIGIAGKQ
notes: Recombinant; also called ID 22 (III); WT ID 22
Fold-Decrease in fH binding [4]: 0 fold

B14: fHbp ID 15, wild-type (natural chimera, modular group IV) (other)
chain: CSSGGGGSGGGGVAADIGAGLADALTAPLDHKDKGLKSLTLEDSISQNGTLTLSAQGAERTFKAGDKDNSLNTGKLKNDKISRFDFIRQIEVDGQLITLESGEFQVYKQSHSALTALQTEQVQDSEHSGKMVAKRQFRIGDIVGEHTSFGKLPKDVMATYRGTAFGSDDAGGKLTYTIDFAAKQGHGKIEHLKSPELNVDLAAADIKPDEKHHAVISGSVLYNQAEKGSYSLGIFGGQAQEVAGSAEVETANGIRHIGLAAKQ
notes: Recombinant; also called Pep 15 WT; peptide 15
Fold-Decrease in fH binding [4]: 0 fold
Fold-Decrease in fH binding [8]: 0 fold

B15: fHbp ID 15 S41P mutant (other)
chain: CSSGGGGSGGGGVAADIGAGLADALTAPLDHKDKGLKSLTLEDSIPQNGTLTLSAQGAERTFKAGDKDNSLNTGKLKNDKISRFDFIRQIEVDGQLITLESGEFQVYKQSHSALTALQTEQVQDSEHSGKMVAKRQFRIGDIVGEHTSFGKLPKDVMATYRGTAFGSDDAGGKLTYTIDFAAKQGHGKIEHLKSPELNVDLAAADIKPDEKHHAVISGSVLYNQAEKGSYSLGIFGGQAQEVAGSAEVETANGIRHIGLAAKQ
notes: also called Pep 15 S41P
Fold-Decrease in fH binding [4]: > 50 fold
binding result [5]: no binding

B16: fHbp ID 1, wild-type recombinant factor H binding protein (strain MC58, variant 1, modular group I) (other)
chain: CSSGGGGVAADIGAGLADALTAPLDHKDKGLQSLTLDQSVRKNEKLKLAAQGAEKTYGNGDSLNTGKLKNDKVSRFDFIRQIEVDGQLITLESGEFQVYKQSHSALTAFQTEQIQDSEHSGKMVAKRQFRIGDIAGEHTSFDKLPEGGRATYRGTAFGSDDAGGKLTYTIDFAAKQGNGKIEHLKSPELNVDLAAADIKPDGKRHAVISGSVLYNQAEKGSYSLGIFGGKAQEVAGSAEVKTVNGIRHIGLAAKQ
notes: also called WT fHbp ID 1; Pep1
binding result [9]: no binding (tested: 1:100 dilution of serum)

— patent US20110256180A1 (CHILDREN S HOSPITAL AND RESEARCH CENTER AT OAKLAND, published 2011)
